Source: article PMC3650080, “Structural Insights into the UbiD Protein Family from the Crystal Structure of PA0254 from Pseudomonas aeruginosa” (PLoS ONE, 2013)

B1: PA0254 from Pseudomonas aeruginosa (UbiD-like protein) (enzyme, Pseudomonas aeruginosa PAO1, UniProt Q9I6N5 1-496, looked up)
chain: MNRSALDFRHFVDHLRRQGDLVDVHTEVDANLEIGAITRRVYERRAPAPLFHNIRDSLPGARVLGAPAGLRADRARAHSRLALHFGLPEHSGPRDIVAMLRAAMRAEPIAPRRLERGPVQENVWLGEQVDLTRFPVPLLHEQDGGRYFGTYGFHVVQTPDGSWDSWSVGRLMLVDRNTLAGPTIPTQHIGIIREQWRRLGKPTPWAMALGAPPAALAAAGMPLPEGVSEAGYVGALVGEPVEVVRTQTNGLWVPANTEIVLEGEISLDETALEGPMGEYHGYSFPIGKPQPLFHVHALSFRDQPILPICVAGTPPEENHTIWGTMISAQLLDVAQNAGLPVDMVWCSYEAATCWAVLSIDVQRLAALGTDAAAFAARVAETVFGSHAGHLVPKLILVGNDIDVTEIDQVVWALATRAHPLHDHFAFPQIRDFPMVPYLDAEDKARGSGGRLVINCLYPEQFAGQMRAATASFRHAYPTALRRRVEERWSDYGFGDA
notes: PA0254, UbiD-like putative 3-polyprenyl-4-hydroxybenzoate decarboxylase of Pseudomonas aeruginosa PAO1; full-length gene (residues 1-496 modelled); calculated mass of His6-PA0254 57053 Da per subunit; The TEV-cleavable His6 tag was not removed (incomplete cleavage); tag residues -7 to 0 are partly seen in the trigonal crystal; A SeMet-substituted form was used for phasing only; also called UbiD2; …
B2: UbiD from P. aeruginosa (PA5237) (enzyme, Pseudomonas aeruginosa PAO1, UniProt Q9HTV3 1-488, looked up)
chain: MTFKDLRDFIAQLEQRGALKRIQVPISPVLEMTEVCDRTLRAKGPALLFEKPTGFDMPVLGNLFGTPERVALGMGAEDVGALREIGKLLAQLKEPEPPKGLKDAWAKLPMYRKVLSMAPKVLKDAPCQEVVEEGEDVDLGRLPVQTCWPGDVGPLITWGLTVTRGPNKERQNLGIYRQQVIGRNKVIMRWLSHRGGALDYREWCQKHPGQPYPVAVALGADPATILGAVTPVPDTLSEYAFAGLLRGHRTELVKCRGSDLQVPASAEIVLEGVIHPGEMADEGPYGDHTGYYNEVDRFPVFTVERVTRRQKPIYHSTYTGRPPDEPAILGVALNEVFVPILQKQFPEIVDFYLPPEGCSYRMAVVTMKKQYPGHAKRVMLGVWSFLRQFMYTKFVIVTDDDIDARDWNDVIWAITTRMDPKRDTVMIDNTPIDYLDFASPVSGLGSKMGLDATHKWPGETSREWGRAIVKDEAVTRRIDALWSSLGID
notes: PA5237, UbiD (3-polyprenyl-4-hydroxybenzoate decarboxylase) of Pseudomonas aeruginosa PAO1; construct not described; also called UbiD1; bona fide UbiD

Key:
[1] = target: the molecule itself; assay: crystal structure; two crystal forms of His6-PA0254: P2(1) (1 M (NH4)2SO4, 0.1 M Bis-Tris pH 5.5, 1% PEG 3350; 2.3 Å, four subunits in the asymmetric unit) and P3(2)21 (0.1 M Hepes pH 7.5, 0.2 M MgCl2, 10% PEG 400; 1.95 Å, three subunits); dimer told from crystal packing and PISA
[2] = target: the molecule itself; assay: SEC; superdex-200 column (GE-Healthcare) calibrated with Ribonuclease-A, Chymotrypsinogen-A, Ovalbumin, Albumin, Catalase and Ferretin; absorbance at 280 nm

| Protein | stoichiometry N [1] | stoichiometry N [2] |
| --- | --- | --- |
| B1 | 2 | – |
| B2 | – | 6 |
